Target: the molecule itself
Assay: Western blot of dimer and monomer bands after SDS-PAGE; hMDMs incubated with MAC (+/- anti-C7) or 5 uM MitoPQ for 3 hours; cells treated with 80 mM MMTS for 10 min at RT before lysis; % dimer = SI dimer/(SI dimer + SI monomer) x 100, expressed relative to untreated control

B1: mitochondrial peroxiredoxin 3 (natural protein, human (endogenous in hMDMs), UniProt P30048 62-256, looked up)
chain: APAVTQHAPYFKGTAVVNGEFKDLSLDDFKGKYLVLFFYPLDFTFVCPTEIVAFSDKANEFHDVNCEVVAVSVDSHFSHLAWINTPRKNGGLGHMNIALLSDLTKQISRDYGVLLEGSGLALRGLFIIDPNGVIKHLSVNDLPVGRSVEETLRLVKAFQYVETHGEVCPANWTPDSPTIKPSPAASKEYFQKVNQ
notes: peroxiredoxin 3 (Prx3), mitochondrial, endogenous in human monocyte-derived macrophages; detected with rabbit anti-Prx3 (Abcam Ab73349); Cells were incubated in 80 mM methylmethanethiosulfonate (MMTS) for 10 min before lysis; also called Prx3; Prx; source: endogenous, hMDM (human monocyte-derived macrophage) lysate
stoichiometry N: 2

— article PMC9554752, “Complement membrane attack complex is an immunometabolic regulator of NLRP3 activation and IL-18 secretion in human macrophages” (Frontiers in Immunology, 2022)
